Measurements taken from the RNAGym collection of RNA variant scans (doi:10.1073/pnas.2313332121).

B1: TPR t1 (parent)
chain: GACCAAUCUGCCCUCAGAGCUCGAGAACAUCUUCGGAUGCAGAGGAGGCAGGCUUCGGUGGCGCGAUAGCGCCAACGUCCUCAACCUCCAAUGCAUCCCACCACAUGAUGAUGCCUGAAGAGCCUUGGUUUUUUG

Variants of: B1
Assay: polymerase ribozyme fitness, log enrichment relative to wild type (log ratio); higher = more active; in vitro selection for triplet polymerase activity
Outline: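 Mutant libraries were PCR-built and transcribed for each subunit of a heterodimeric triplet polymerase ribozyme and selected for one round in triplicate at −7 °C, frozen, before gel excision of extended constructs and streptavidin-bead capture. Input and output libraries were Illumina-sequenced, keeping genotypes with ≥10 input reads and ≥1 read per output. Fitness is a logarithmic ratio of genotype to wild-type enrichment, in base 2, using inverse-variance-weighted replicate averages.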

Row | Variant | polymerase ribozyme fitness (log ratio)
1 | A43U A46U G58C G60A | -2.67
2 | A43U C76U C123G | -0.376
3 | A43C G93C U130A | -3.38
4 | A43U C53A U129A | -4.05
5 | A43C G117C | -4.86
6 | A43U C88G A95U | -3.19
7 | A43G A50G G60A | -4.16
8 | A43U A46G C53G U87C C115U | -2.37
9 | A43G U54C A95U A121C U129A | -2.96
10 | A43U C79U | -0.702
11 | A43U A91U G110A G120C | -5.56
12 | A43G G110C | -2.35
13 | A43U A74G | -1.55
14 | A43C G52A | -2.92
15 | A43U C73A C104A G113U | -5.13
16 | A43U A50C C73U U78C C94G | -4.28
17 | A43U C123A | -1.02
18 | A43U C102U | -3.44
19 | A43G G60A G107C C114U G120U U133G | -3.85
20 | A43G G69C A90C | -2.1
21 | A43G C53A U109A A119G | -5.89

Row | Variant | polymerase ribozyme fitness (log ratio)
22 | A43U G45A U96A A108G C123G | -4.02
23 | A43C G61U C64G A121G | -6.23
24 | A43U C53U C72A A91U A105G U106A U125G | -2.96
25 | A43C U129A | -3.98
26 | A43U C73U C123G G127C | -1.76
27 | A43U A50U U81A A91G U92G | -3.02
28 | A43C U54C G58A C86A | -3.78
29 | A43U A74U C104U C115U | -3.23
30 | A43U G52C C72U | -2.16
31 | A43U G61A U92A G93C | -1.44
32 | A43G C97U | -1.61
33 | A43G G63A | -3.39
34 | A43C U87G | -2.73
35 | A43G A50G G63C | -3.02
36 | A43G A74G C89U U109G | -7.22
37 | A43C G69U C99U | -3.77
38 | A43U A111C | -1.94
39 | A43G U59A C99U | -6.09
40 | A43U C85A | -2.96
41 | A43G G63U C115U | -4.05
42 | A43U C88A U109A | -6.37

Row | Variant | polymerase ribozyme fitness (log ratio)
43 | A43U C56G U67A G69U G71C A75G C101A G107C C124G | -7.81
44 | A43G G63A G77C A90G G127U G135C | -3.69
45 | A43U G47U A74U | -2.98
46 | A43C G61U C85U | -2.37
47 | A43G C56G G69U A108G C124A | -2.3
48 | A43U C56U | -1.59
49 | A43G G58C C62A C85U | -6.11
50 | A43G C101U A108G | -2.96
51 | A43G A46U U112G | -3.43
52 | A43U A118U | -1.23
53 | A43G | -1.32
54 | A43U | -1.2
55 | A43U C85G A95C U112C | -2.22
56 | A43U C56A C73A U109A | -5.95
57 | A43U A90C G110A A111G U132A | -0.915
58 | A43G G44U G48A U78C C124A | 0.343
59 | A43G C53G G69C | -2.9
60 | A43U C114G | -3.27
61 | A43G A50G C70A C101U | -5.22
62 | A43U G45U G110U | -3.95
63 | A43U G61A C73A C88A G93A A121U | -2.52

Row | Variant | polymerase ribozyme fitness (log ratio)
64 | A43U G45A C53U C56G C62U A84U | -1.89
65 | A43G G61U C114A G127C U132A | -3.36
66 | A43C G63A U78C C88A A91G C94U U130C | -4.78
67 | A43U C82G A119G C123U C124A | -0.662
68 | A43G G71A A100U | -6.07
69 | A43U G60U C123G U132G | 0.532
70 | A43U A121G | 1.17
71 | A43U G48U C56G U116A | -6.74
72 | A43U C49G U54A | -2.2
73 | A43G G69U C89U | -0.177
74 | A43U G48U U54C C89U U112A | -0.663
75 | A43G U133G | -1.7
76 | A43C G63A U78C C104A G120C | -6.92
77 | A43G A121G U129A | -0.572
78 | A43U G51U G71A C79A U112G | -6.57
79 | A43C G48C G113C A119C G120U A121G | -2.55
80 | A43G G45U U59A A66U | -5.27
81 | A43C G63C C102A A121U C123U | -5.76
82 | A43U C49G G135U | -3.89
83 | A43C G60U U133G | -2
